Data from the supplement of paper PMC12783771.
± gives the standard deviation of the averaged measurements.

B1: library; numbered along this chain (parent)
chain: MNIQIGELAKRTACPVVTIRFYEQEGLLPPPGRSRGNFRLYGEEHVERLQFIRHCRSLDMPLSDVRTLLSYRKRPDQDCGEVNMLLDEHIRQVESRIGALLELKHHLVELREACSGARPAQSCGILQGLSDCVCDTRGTTAHPSD

Legend:
[1] = variants of: B1; test: sfGFP reporter fluorescence (15 h) (µM FITC); higher = higher leak; settings: library round: Round 0; ligand: none
How it was run: (§1)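 An Echo normalized PCR-made linear PbrR templates to 5 nM and assembled 1 μL reactions in BL21 Star (DE3) PANOx-SP extract carrying the pPbrR-sfGFP reporter plasmid and 30 μg/mL GamS. Reactions received 1 µM lead chloride, 30 µM zinc acetate or no metal and stood 15 hr at 30 °C. Fluorescence at 485/528 nm (Synergy Neo2) was converted with FITC standard curves made in 50 mM sodium borate pH 8.5. Endpoint sfGFP signal is given in µM FITC, from up to three biological replicates.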

[2] = variants of: B1; test: sfGFP reporter fluorescence (15 h) (µM FITC); higher = stronger transcriptional activation; settings: library round: Round 0
How it was run: as §1

Variant | sfGFP reporter fluorescence [1] | sfGFP reporter fluorescence ([2]; ligand: 1 µM Pb) | sfGFP reporter fluorescence ([2]; ligand: 30 µM Zn)
N83T | 0.0607 ± 0.00078 | 0.0759 ± 0.0015 | 0.226 ± 0.047
N83L | 0.0585 ± 0.0018 | 0.07 ± 0.0088 | 0.0575 ± 0.0031
N83Y | 0.0594 ± 0.0015 | 0.0762 ± 0.001 | 0.0645 ± 0.0015
N83K | 0.0603 ± 0.0034 | 0.0663 ± 0.0015 | 0.07532 ± 0.00026
N83E | 0.0612 ± 0.001 | 0.0612 ± 0.0015 | 0.141 ± 0.0023
N83F | 0.0588 ± 0.00078 | 0.07275 ± 0.00026 | 0.05882 ± 0.00026
N83I | 0.0561 ± 0.0015 | 0.0718 ± 0.001 | 0.055 ± 0.001
N83M | 0.06102 ± 0.00026 | 0.0768 ± 0.0023 | 0.06194 ± 0.00052
N83G | 0.0559 ± 0.00078 | 0.0748 ± 0.001 | 0.692 ± 0.13
N83A | 0.061 ± 0.0013 | 0.0867 ± 0.0065 | 0.1411 ± 0.001
N83W | 0.059 ± 0.0031 | 0.0748 ± 0.0042 | 0.0619
N83R | 0.0625 ± 0.00078 | 0.0775 ± 0.0065 | 0.0883 ± 0.0021
N83S | 0.0605 ± 0.0026 | 0.0775 ± 0.00078 | 0.333 ± 0.016
N83D | 0.0614 ± 0.0013 | 0.0607 ± 0.0013 | 1.003 ± 0.0065
N83C | 0.0601 ± 0.0021 | 0.114 ± 0.016 | 0.0649 ± 0.0015
N83V | 0.0577 ± 0.0034 | 0.07623 ± 0.00052 | 0.0588 ± 0.0013
N83Q | 0.06487 ± 0.00052 | 0.0693 | 1.55 ± 0.4
E81A | 0.0612 ± 0.001 | 0.0792 ± 0.0047 | 0.655 ± 0.13
M84A | 0.0618 ± 0.0029 | 0.0687 ± 0.0029 | 0.807 ± 0.02
Q77A | 0.0698 ± 0.0013 | 0.128 ± 0.045 | 1.48 ± 0.31
T67A | 0.06047 ± 0.00052 | 0.0709 ± 0.0018 | 0.381 ± 0.063
R72A | 0.06175 ± 0.00026 | 0.0687 ± 0.008 | 0.3731 ± 0.0026
C79K | 0.06011 ± 0.00052 | 0.0614 ± 0.00078 | 0.0548 ± 0.00078

Variant | sfGFP reporter fluorescence [1] | sfGFP reporter fluorescence ([2]; ligand: 1 µM Pb) | sfGFP reporter fluorescence ([2]; ligand: 30 µM Zn)
C79R | 0.06011 ± 0.00052 | 0.0629 ± 0.0018 | 0.059 ± 0.001
C79W | 0.0583 ± 0.0021 | 0.0588 ± 0.0013 | 0.0548 ± 0.0034
C79G | 0.0553 ± 0.0021 | 0.0552 ± 0.0013 | 0.0522 ± 0.0013
C79I | 0.0557 ± 0.0015 | 0.05351 ± 0.00052 | 0.05387 ± 0.00052
C79M | 0.05974 ± 0.00052 | 0.06121 ± 0.00052 | 0.0592 ± 0.0013
C79S | 0.0592 ± 0.0018 | 0.059 ± 0.001 | 0.055
C79P | 0.057 ± 0.00078 | 0.05772 ± 0.00026 | 0.05351 ± 0.00052
C79N | 0.05919 ± 0.00026 | 0.0566 ± 0.0013 | 0.0557
C79E | 0.0588 ± 0.00078 | 0.0596 ± 0.00078 | 0.0548 ± 0.00078
C79D | 0.05882 ± 0.00026 | 0.059 ± 0.0021 | 0.0564 ± 0.001
C79H | 0.05919 ± 0.00026 | 0.0596 ± 0.00078 | 0.0559 ± 0.00078
C79Q | 0.05901 ± 0.00052 | 0.05937 ± 0.00052 | 0.0566 ± 0.00078
C79Y | 0.0597 ± 0.0031 | 0.0585 ± 0.00078 | 0.0564 ± 0.001
C79T | 0.0575 ± 0.0031 | 0.0592 ± 0.0018 | 0.0555 ± 0.0018
C79F | 0.055 ± 0.0026 | 0.0574 ± 0.0013 | 0.0546 ± 0.0015
C79L | 0.0555 ± 0.0023 | 0.0553 ± 0.0021 | 0.05498 ± 0.00052
C79A | 0.05827 ± 0.00052 | 0.055 ± 0.0021 | 0.0585 ± 0.00078
C79V | 0.0572 ± 0.0015 | 0.0586 | 0.05552 ± 0.00026
G80A | 0.0577 ± 0.0029 | 0.0649 ± 0.0073 | 0.526 ± 0.039
R74A | 0.0596 ± 0.0013 | 0.0669 ± 0.0065 | 0.369 ± 0.079
D64W | 0.0815 ± 0.0029 | 0.167 ± 0.0052 | 1.64 ± 0.044
D64V | 0.177 ± 0.0098 | 0.5072 ± 0.0036 | 3.52 ± 0.1
D64Y | 0.61 ± 0.017 | 1.75 ± 0.51 | 3.81 ± 0.17

Variant | sfGFP reporter fluorescence [1] | sfGFP reporter fluorescence ([2]; ligand: 1 µM Pb) | sfGFP reporter fluorescence ([2]; ligand: 30 µM Zn)
V93A | 0.0585 ± 0.0013 | 0.0579 ± 0.0031 | 0.128 ± 0.0062
L86A | 0.07 ± 0.0015 | 0.0647 ± 0.0018 | 0.0782 ± 0.0018
D87A | 0.0596 ± 0.0049 | 0.0652 ± 0.0015 | 0.393 ± 0.011
K73A | 0.0621 ± 0.0013 | 0.0676 ± 0.007 | 0.42 ± 0.15
V82W | 0.0592 ± 0.0013 | 0.05827 ± 0.00052 | 0.0555 ± 0.00078
V82K | 0.0601 ± 0.0021 | 0.0566 ± 0.0039 | 0.0563 ± 0.0039
V82I | 0.0572 ± 0.0015 | 0.0658 ± 0.0023 | 0.676 ± 0.0088
V82T | 0.0588 ± 0.0013 | 0.059 ± 0.0021 | 0.0583 ± 0.0057
V82S | 0.0592 ± 0.0023 | 0.057 ± 0.0018 | 0.05552 ± 0.00026
V82D | 0.057 ± 0.0044 | 0.0597 | 0.055
V82E | 0.0568 ± 0.0026 | 0.0586 ± 0.0015 | 0.0541 ± 0.0029
V82H | 0.0594 ± 0.0015 | 0.05974 ± 0.00052 | 0.0586 ± 0.001
V82A | 0.06047 ± 0.00052 | 0.057 ± 0.0013 | 0.0786 ± 0.0039
V82M | 0.0594 | 0.0586 | 0.06212 ± 0.00026
V82C | 0.05956 ± 0.00026 | 0.0588 ± 0.00078 | 0.0898 ± 0.0042
V82P | 0.057 ± 0.00078 | 0.05754 ± 0.00052 | 0.0577 ± 0.0013
V82Y | 0.0588 ± 0.0034 | 0.05864 ± 0.00052 | 0.0544 ± 0.0013
V82R | 0.0605 ± 0.0015 | 0.05937 ± 0.00052 | 0.0568 ± 0.001
V82L | 0.0574 ± 0.0034 | 0.0583 ± 0.001 | 0.0724 ± 0.0044
V82Q | 0.0579 ± 0.0021 | 0.05699 ± 0.00026 | 0.0552 ± 0.0013
V82G | 0.0555 ± 0.0023 | 0.0564 ± 0.001 | 0.0548 ± 0.0018
V82F | 0.0572 | 0.0572 ± 0.0015 | 0.053 ± 0.0023
V82N | 0.0597 ± 0.001 | 0.0597 ± 0.0015 | 0.05644 ± 0.00052

Variant | sfGFP reporter fluorescence [1] | sfGFP reporter fluorescence ([2]; ligand: 1 µM Pb) | sfGFP reporter fluorescence ([2]; ligand: 30 µM Zn)
S70A | 0.0678 ± 0.0052 | 0.072 ± 0.0054 | 0.281 ± 0.061
I90R | 0.0658 ± 0.0049 | 0.125 | 0.97 ± 0.025
I90C | 0.0592 ± 0.0018 | 0.0656 ± 0.00052 | 0.568 ± 0.012
I90S | 0.0601 ± 0.0031 | 0.0671 ± 0.0036 | 0.384 ± 0.0091
I90A | 0.06249 ± 0.00026 | 0.0792 ± 0.0031 | 0.521 ± 0.0044
I90L | 0.0559 ± 0.0029 | 0.0583 ± 0.0015 | 0.3539 ± 0.0034
I90G | 0.0535 ± 0.0031 | 0.0577 ± 0.00078 | 0.222 ± 0.0086
I90Q | 0.05974 ± 0.00052 | 0.0737 ± 0.0042 | 0.637 ± 0.052
I90K | 0.0621 ± 0.0023 | 0.099 ± 0.0047 | 0.85 ± 0.061
I90V | 0.059 ± 0.0036 | 0.064 ± 0.00078 | 0.583 ± 0.015
I90M | 0.0588 ± 0.0018 | 0.0625 ± 0.0018 | 0.384 ± 0.013
I90H | 0.0619 ± 0.0036 | 0.0898 ± 0.0021 | 0.755 ± 0.0078
I90T | 0.0608 ± 0.0021 | 0.07953 ± 0.00052 | 0.595 ± 0.007
I90N | 0.05717 ± 0.00052 | 0.0601 ± 0.0036 | 0.279 ± 0.012
I90E | 0.0579 ± 0.0042 | 0.05791 ± 0.00052 | 0.0977 ± 0.0018
I90W | 0.0585 ± 0.0023 | 0.0619 ± 0.001 | 0.272 ± 0.0062
I90D | 0.0568 ± 0.0047 | 0.0561 ± 0.0015 | 0.085 ± 0.0057
I90F | 0.0566 ± 0.0054 | 0.063 ± 0.0026 | 0.339 ± 0.033
I90P | 0.0574 ± 0.0029 | 0.0616 ± 0.0015 | 0.151 ± 0.0047
I90Y | 0.0608 ± 0.0026 | 0.108 ± 0.0023 | 0.9855 ± 0.0052
